# From patent US20220213456
# What was measured:
# [1] = system: T1, OMNI-53 (Clostridium sp. AF02-29); experiment: cleavage_in_vitro; details: TXTL; PAM NRHR (specific NAWA)
# T1 sequence: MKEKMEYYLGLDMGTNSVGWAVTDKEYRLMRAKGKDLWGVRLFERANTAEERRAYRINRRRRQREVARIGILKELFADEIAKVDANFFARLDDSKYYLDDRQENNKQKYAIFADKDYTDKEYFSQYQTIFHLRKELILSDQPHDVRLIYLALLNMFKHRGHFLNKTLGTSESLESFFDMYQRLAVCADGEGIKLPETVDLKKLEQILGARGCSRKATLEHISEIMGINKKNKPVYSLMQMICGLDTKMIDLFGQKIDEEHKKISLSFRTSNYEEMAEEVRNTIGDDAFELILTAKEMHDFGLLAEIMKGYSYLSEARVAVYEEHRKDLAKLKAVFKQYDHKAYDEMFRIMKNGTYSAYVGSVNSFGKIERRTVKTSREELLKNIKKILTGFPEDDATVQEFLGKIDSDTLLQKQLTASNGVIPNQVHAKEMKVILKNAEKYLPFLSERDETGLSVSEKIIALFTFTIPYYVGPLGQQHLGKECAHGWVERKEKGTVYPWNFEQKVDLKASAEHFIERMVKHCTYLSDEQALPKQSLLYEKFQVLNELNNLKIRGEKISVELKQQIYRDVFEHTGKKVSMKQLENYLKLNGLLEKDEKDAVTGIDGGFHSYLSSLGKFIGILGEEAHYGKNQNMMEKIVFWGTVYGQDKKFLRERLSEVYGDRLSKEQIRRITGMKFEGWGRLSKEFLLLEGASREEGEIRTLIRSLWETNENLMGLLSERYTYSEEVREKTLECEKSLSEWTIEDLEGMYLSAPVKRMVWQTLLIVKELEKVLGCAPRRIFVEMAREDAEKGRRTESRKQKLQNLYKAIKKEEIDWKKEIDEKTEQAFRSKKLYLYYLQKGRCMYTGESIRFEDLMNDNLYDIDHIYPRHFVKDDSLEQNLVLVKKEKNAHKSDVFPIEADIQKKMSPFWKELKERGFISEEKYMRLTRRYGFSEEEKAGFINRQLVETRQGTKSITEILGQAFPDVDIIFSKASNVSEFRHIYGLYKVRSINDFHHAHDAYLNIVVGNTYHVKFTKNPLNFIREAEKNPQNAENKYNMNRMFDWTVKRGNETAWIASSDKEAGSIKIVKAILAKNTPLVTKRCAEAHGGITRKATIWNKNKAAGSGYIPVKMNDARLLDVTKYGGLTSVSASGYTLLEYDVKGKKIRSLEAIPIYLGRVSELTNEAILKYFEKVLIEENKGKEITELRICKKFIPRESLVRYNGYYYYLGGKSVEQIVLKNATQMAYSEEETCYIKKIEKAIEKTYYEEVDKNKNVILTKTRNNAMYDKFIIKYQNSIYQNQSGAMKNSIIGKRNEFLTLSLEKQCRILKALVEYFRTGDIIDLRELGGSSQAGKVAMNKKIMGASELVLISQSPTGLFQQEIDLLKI
# [2] = system: T1, OMNI-53 (Clostridium sp. AF02-29); experiment: cell_activity; details: E. coli plasmid depletion; PAM NRTA
# [3] = system: T2, OMNI-39 (Butyrivibrio sp. AC2005); experiment: cleavage_in_vitro; details: TXTL; PAM NNGHAD (specific NNGYAA)
# T2 sequence: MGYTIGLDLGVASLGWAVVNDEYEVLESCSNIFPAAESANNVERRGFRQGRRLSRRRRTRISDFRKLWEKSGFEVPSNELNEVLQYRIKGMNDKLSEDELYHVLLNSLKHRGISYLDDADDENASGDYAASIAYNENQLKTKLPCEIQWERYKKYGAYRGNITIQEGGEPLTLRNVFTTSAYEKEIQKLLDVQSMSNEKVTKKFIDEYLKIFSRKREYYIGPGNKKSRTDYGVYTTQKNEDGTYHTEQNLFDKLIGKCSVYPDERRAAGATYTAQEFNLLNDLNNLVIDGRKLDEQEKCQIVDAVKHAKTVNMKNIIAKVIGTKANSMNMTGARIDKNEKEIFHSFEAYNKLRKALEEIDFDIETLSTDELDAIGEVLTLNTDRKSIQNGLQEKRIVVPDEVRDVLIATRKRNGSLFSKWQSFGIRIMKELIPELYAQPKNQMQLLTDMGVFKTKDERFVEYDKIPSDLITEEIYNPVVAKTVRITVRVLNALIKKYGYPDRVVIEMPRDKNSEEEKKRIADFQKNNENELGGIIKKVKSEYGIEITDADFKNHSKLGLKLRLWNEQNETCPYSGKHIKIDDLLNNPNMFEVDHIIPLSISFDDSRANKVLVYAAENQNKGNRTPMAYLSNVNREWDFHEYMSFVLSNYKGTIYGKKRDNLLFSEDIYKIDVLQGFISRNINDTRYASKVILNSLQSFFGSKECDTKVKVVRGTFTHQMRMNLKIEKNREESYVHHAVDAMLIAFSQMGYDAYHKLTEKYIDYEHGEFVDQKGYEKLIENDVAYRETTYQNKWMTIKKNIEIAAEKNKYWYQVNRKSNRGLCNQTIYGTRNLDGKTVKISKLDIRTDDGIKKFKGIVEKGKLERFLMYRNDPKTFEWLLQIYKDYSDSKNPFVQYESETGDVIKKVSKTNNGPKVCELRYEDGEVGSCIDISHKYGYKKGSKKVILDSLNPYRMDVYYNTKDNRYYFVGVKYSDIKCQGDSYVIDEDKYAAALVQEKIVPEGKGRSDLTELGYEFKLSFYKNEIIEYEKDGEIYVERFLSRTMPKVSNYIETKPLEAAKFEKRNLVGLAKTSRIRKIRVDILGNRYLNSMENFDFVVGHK
# [4] = system: T2, OMNI-39 (Butyrivibrio sp. AC2005); experiment: cell_activity; details: E. coli plasmid depletion; PAM NNGYAD (specific NNGYAA)
# OMNI-40 (bacterium LF-3) [5] = system: T3, OMNI-40 (bacterium LF-3); experiment: cleavage_in_vitro; details: TXTL; PAM NYGRV
# T3 sequence: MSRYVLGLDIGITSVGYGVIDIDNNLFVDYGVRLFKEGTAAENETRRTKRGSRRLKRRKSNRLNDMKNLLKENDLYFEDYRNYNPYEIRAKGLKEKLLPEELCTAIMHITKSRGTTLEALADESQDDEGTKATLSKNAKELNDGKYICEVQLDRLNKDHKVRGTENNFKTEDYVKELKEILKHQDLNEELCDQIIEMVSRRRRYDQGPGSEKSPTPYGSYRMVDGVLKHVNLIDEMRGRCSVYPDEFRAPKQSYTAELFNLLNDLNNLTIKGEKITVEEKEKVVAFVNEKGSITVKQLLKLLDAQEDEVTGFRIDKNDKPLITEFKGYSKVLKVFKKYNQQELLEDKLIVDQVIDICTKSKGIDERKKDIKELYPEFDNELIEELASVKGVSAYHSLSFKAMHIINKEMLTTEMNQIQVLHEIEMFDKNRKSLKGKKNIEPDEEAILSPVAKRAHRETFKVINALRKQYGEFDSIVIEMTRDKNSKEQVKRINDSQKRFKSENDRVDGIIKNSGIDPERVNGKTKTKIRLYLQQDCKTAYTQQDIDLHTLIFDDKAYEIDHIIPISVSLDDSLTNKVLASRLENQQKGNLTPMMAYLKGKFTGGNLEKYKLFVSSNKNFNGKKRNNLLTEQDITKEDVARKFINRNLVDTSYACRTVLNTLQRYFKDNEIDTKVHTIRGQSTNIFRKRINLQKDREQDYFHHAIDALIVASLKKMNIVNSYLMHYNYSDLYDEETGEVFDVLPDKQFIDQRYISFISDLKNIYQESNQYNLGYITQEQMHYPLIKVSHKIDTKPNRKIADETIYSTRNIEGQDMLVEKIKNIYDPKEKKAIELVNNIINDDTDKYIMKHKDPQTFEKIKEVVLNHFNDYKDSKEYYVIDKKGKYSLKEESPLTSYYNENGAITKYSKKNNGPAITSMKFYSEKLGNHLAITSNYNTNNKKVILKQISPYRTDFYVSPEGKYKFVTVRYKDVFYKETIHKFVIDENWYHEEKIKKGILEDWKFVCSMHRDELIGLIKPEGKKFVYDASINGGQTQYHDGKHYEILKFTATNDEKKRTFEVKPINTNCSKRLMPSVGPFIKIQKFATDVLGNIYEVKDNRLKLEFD
# OMNI-40 (bacterium LF-3) [6] = system: T3, OMNI-40 (bacterium LF-3); experiment: cell_activity; details: E. coli plasmid depletion; PAM NYGRV (specific NYGAV)
# [7] = system: T4, OMNI-36 (Blastopirellula marina); experiment: cleavage_in_vitro; details: TXTL; PAM NNYCCC; V1, V2 tested
# T4 sequence: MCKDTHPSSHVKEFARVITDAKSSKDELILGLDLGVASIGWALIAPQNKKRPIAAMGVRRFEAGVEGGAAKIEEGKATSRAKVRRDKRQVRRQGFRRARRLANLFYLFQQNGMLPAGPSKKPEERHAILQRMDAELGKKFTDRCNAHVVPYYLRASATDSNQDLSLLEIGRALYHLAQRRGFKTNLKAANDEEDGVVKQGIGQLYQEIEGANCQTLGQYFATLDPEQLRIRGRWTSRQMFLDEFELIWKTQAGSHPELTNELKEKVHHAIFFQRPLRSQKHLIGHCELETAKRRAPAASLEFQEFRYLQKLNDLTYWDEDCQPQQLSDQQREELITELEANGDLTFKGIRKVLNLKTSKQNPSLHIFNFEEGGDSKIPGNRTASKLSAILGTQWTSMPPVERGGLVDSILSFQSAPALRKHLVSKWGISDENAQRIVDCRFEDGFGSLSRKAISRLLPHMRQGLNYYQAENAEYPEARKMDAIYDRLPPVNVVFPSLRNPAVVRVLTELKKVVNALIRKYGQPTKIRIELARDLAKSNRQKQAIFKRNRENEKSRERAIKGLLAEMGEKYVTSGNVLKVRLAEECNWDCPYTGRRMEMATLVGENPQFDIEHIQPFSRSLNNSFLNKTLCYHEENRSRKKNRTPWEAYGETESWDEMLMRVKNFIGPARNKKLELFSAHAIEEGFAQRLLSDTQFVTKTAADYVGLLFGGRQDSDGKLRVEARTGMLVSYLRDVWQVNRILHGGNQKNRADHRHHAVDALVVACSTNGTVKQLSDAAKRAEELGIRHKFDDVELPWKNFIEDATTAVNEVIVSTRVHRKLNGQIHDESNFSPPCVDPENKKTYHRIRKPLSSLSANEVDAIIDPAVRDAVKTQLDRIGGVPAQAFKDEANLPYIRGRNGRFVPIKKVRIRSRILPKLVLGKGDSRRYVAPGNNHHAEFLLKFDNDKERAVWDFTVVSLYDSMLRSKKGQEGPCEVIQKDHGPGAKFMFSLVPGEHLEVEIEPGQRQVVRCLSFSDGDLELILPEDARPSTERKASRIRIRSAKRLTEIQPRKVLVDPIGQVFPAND
sequence,measurement,setting,value
GGAAGAGCAGAGCCUUGGUCUCGUUUGAGAACCAUGGAAACAUGGUGAGUGCAAAUAAGGAUUAUCCGAAAUUGUAUGCCCGCAUUGUGCGGCAAUAAAAAGGCUCGAAAGAGUCUUUUU / GGAAGAGCAGAGCCTTGGTCTCNNNNNNNN / NNNNNNNNGAGACCAAGGCTCTGCTCTTCC [OMNI-53 T2 sgRNA V1 ; pbPOS T2 protospacer 8N PAM library],activity (1-depletion score),[1],0.97
same,activity (1-depletion score),[2],1
GGAAGAGCAGAGCCUUGGUCUCGUUUUAGUACCUAGAGAAAGAAAUUUCUUUAGACCUACUAAAAUAAGGCUUUAUGCCGAGAUUAAAGGAUGCCGACGGGCAUCCUUUUUU / GGAAGAGCAGAGCCTTGGTCTCNNNNNNNN / NNNNNNNNGAGACCAAGGCTCTGCTCTTCC [OMNI-39 T2 sgRNA V2 ; pbPOS T2 protospacer 8N PAM library],activity (1-depletion score),[3],0.95
same,activity (1-depletion score),[4],0.99
GGAAGAGCAGAGCCUUGGUCUCGUUUUGUUACCAUAUGAUUGAAAAUUUAUAUGACCUAACAAAACAAGGGUUUAUCCCGGACUCGGCUCUUCGGAGCCUUUUU / GGAAGAGCAGAGCCTTGGTCTCNNNNNNNN / NNNNNNNNGAGACCAAGGCTCTGCTCTTCC [OMNI-40 T2 sgRNA V2 ; pbPOS T2 protospacer 8N PAM library],activity (1-depletion score),OMNI-40 (bacterium LF-3) [5],0.97
same,activity (1-depletion score),OMNI-40 (bacterium LF-3) [6],0.95
GGAAGAGCAGAGCCUUGGUCUCGCUGUGGCUUGGAGGGAAUCGUGAAAACGAUUGCUUCGCAAGUCAUAGUAAAGCAAUAGUCAGCGAAAGGUUUGCUCACGGAGCAUUCCGUCGAGUACCCUUUGACGCCUCCCAGCGGGGCGUCUUUUUUU / GGAAGAGCAGAGCCTTGGTCTCNNNNNNNN / NNNNNNNNGAGACCAAGGCTCTGCTCTTCC [OMNI-36 T2 sgRNA V1 ; pbPOS T2 protospacer 8N PAM library],activity (1-depletion score),[7],0.99
